Experimental findings from US20200164032A1 (WASHINGTON UNIVERSITY, published 2020) are described below.

The Kd is the constant that tells how readily two partners part at equilibrium. As usually defined, the koff is the first-order rate constant of dissociation. A lower koff goes with slow dissociation. By kon is commonly meant the second-order rate constant of association.

One experiment addresses T1, human CCL3 (human, UniProt P10147 23-92).
T1 construct: also called hCCL3
T1 sequence: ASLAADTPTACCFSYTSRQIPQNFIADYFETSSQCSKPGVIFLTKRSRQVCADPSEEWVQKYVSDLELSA
As to the kind of experiment: SPR, R17 264GG(G)DS267 on CM5 chip, hCCL3 injected. For orientation: In SPR one partner is held on a chip, and binding of the other changes the refractive index at the surface.

For a further experiment, the target named is T2, murine CCL3 (mouse, UniProt P10855 24-92).
T2 sequence: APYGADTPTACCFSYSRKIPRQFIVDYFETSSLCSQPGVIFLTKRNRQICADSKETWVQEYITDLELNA

In another experiment the target is T3, murine CCL2 (mouse, UniProt P10148 24-148).
T3 construct: also called mCCL2
Put plainly: SPR, mutant R17 on CM5 chip.

For experiment [1], the target named is CCL2 (species not given). As to the kind of experiment: SPR, R17 variant on CM5 chip; column KDeq (nM).
For experiment [2], the target named is CCL2 (species not given). As to the kind of experiment: SPR, R17 variant on CM5 chip; column KD (nM), kinetic.
For experiment [3], the target named is CCL2 (species not given). As to the kind of experiment: SPR, R17 variant on CM5 chip; column kd x 10^-3 s-1.
For experiment [4], the target named is CCL2 (species not given). As to the kind of experiment: SPR, R17 variant on CM5 chip; column ka x 10^6 M-1s-1.
In experiment [5] the target is CCL3 (species not given). As to the kind of experiment: SPR, R17 variant on CM5 chip; column KDeq (nM); ka, kd, KD printed n/a.

T3 sequence (P10148 24-148 limits assumed): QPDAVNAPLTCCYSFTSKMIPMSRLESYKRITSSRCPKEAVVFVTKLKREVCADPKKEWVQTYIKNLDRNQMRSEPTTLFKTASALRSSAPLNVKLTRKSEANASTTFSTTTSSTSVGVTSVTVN

B1: R17 264GG(G)DS267 chemokine null mutant (264LIDS267 replaced by 264GG(G)DS267, with a glycine insert (receptor)
chain: GPVGEPVASEINEASKVSSRLLTQDILFRKDRQATISLPIKLPVEDIITQTCDKITYGPLKFLDLLEKETAVLPLSTDITCPACLGRAVLVGKWECPAHVAVNESDLTVFGPNKEEHVPQFVTVQQPSDGKMQRLFFAKFLGTEESLAVLRVPGPDGHLCIQEALIHFKELSGAGVCSLWKANDSREEGLEMKQVDCLETTVLENQTCIATTLSKKIYHRLYCGERLMTGGQVSTRVLLTALGFYKRQPYTFHRVPKGMVYVHGGGDSGSEDYMEYSECEEVTPGRYEDKQISYTFYTDLFQTADGEPVLASVWGTSGLKDSAYESCAFVIPTKGRRKLVPRRIMSKCYPFRLTYHPSTMTVRLDVRVEKHHGATDQGFVFLKMESGTYSEGREYYLDRVLWGEDSSTNNVLQ
With B1, the binding result with human CCL3 was “no binding (tested: 100 nM)”.

B2: R17 266NAGAQ270 (R17 with 266DSGSE270 mutated to 266NAGAQ270), C-terminal His construct (receptor)
chain: GPVGEPVASEINEASKVSSRLLTQDILFRKDRQATISLPIKLPVEDIITQTCDKITYGPLKFLDLLEKETAVLPLSTDITCPACLGRAVLVGKWECPAHVAVNESDLTVFGPNKEEHVPQFVTVQQPSDGKMQRLFFAKFLGTEESLAVLRVPGPDGHLCIQEALIHFKELSGAGVCSLWKANDSREEGLEMKQVDCLETTVLENQTCIATTLSKKIYHRLYCGERLMTGGQVSTRVLLTALGFYKRQPYTFHRVPKGMVYVHLINAGAQDYMEYSECEEVTPGRYEDKQISYTFYTDLFQTADGEPVLASVWGTSGLKDSAYESCAFVIPTKGRRKLVPRRIMSKCYPFRLTYHPSTMTVRLDVRVEKHHGATDQGFVFLKMESGTYSEGREYYLDRVLWGEDSSTNNVLQ
B2: in the experiment with murine CCL3, the Kd amounted to 2.9 nM, the koff was found to be 0.061 s⁻¹, the kon was 3.1e+07 M⁻¹ s⁻¹ and the t1/2 stood at 11.2 s. Further, the binding result with murine CCL2 is recorded as “no binding”.

B3: R17GAG1 (R17 with residues 29 to 32 RKDR mutated to EDDE), C-terminal His construct (receptor)
chain: GPVGEPVASEINEASKVSSRLLTQDILFEDDEQATISLPIKLPVEDIITQTCDKITYGPLKFLDLLEKETAVLPLSTDITCPACLGRAVLVGKWECPAHVAVNESDLTVFGPNKEEHVPQFVTVQQPSDGKMQRLFFAKFLGTEESLAVLRVPGPDGHLCIQEALIHFKELSGAGVCSLWKANDSREEGLEMKQVDCLETTVLENQTCIATTLSKKIYHRLYCGERLMTGGQVSTRVLLTALGFYKRQPYTFHRVPKGMVYVHLIDSGSEDYMEYSECEEVTPGRYEDKQISYTFYTDLFQTADGEPVLASVWGTSGLKDSAYESCAFVIPTKGRRKLVPRRIMSKCYPFRLTYHPSTMTVRLDVRVEKHHGATDQGFVFLKMESGTYSEGREYYLDRVLWGEDSSTNNVLQ
notes: not shown: C-terminal 8-His tag
In the case of B3, the Kd was 31 nM in experiment [1], 10 nM in experiment [2] and 0.8 nM in experiment [5]. The koff in experiment [3] was found to be 0.0137 s⁻¹. The kon in experiment [4] came to 1.2e+06 M⁻¹ s⁻¹.

B4: R17GAG2 (R17 with residues 333 to 337 KGRRK mutated to DGEED), C-terminal His construct (receptor)
chain: GPVGEPVASEINEASKVSSRLLTQDILFRKDRQATISLPIKLPVEDIITQTCDKITYGPLKFLDLLEKETAVLPLSTDITCPACLGRAVLVGKWECPAHVAVNESDLTVFGPNKEEHVPQFVTVQQPSDGKMQRLFFAKFLGTEESLAVLRVPGPDGHLCIQEALIHFKELSGAGVCSLWKANDSREEGLEMKQVDCLETTVLENQTCIATTLSKKIYHRLYCGERLMTGGQVSTRVLLTALGFYKRQPYTFHRVPKGMVYVHLIDSGSEDYMEYSECEEVTPGRYEDKQISYTFYTDLFQTADGEPVLASVWGTSGLKDSAYESCAFVIPTDGEEDLVPRRIMSKCYPFRLTYHPSTMTVRLDVRVEKHHGATDQGFVFLKMESGTYSEGREYYLDRVLWGEDSSTNNVLQ
notes: as for B3
With B4, the Kd in experiment [1] was found to be 40 nM; in experiment [2] it was 9.5 nM; in experiment [5], 0.31 nM. Also, the dissociation rate constant (koff) in experiment [3] was 0.012 s⁻¹. The molecule also displayed a kon in experiment [4] of 1.2e+06 M⁻¹ s⁻¹.
